Common to all, as to assay type: cell-based, Yarrowia
For one assay, the system named is hexanoic acid. The assay is described as follows: GPS-PKC-MPT fusions, hexanoic acid feed in vivo assay (Example 13). On the procedure: Strain SB-00311 (HCS2, PKS1.1 and PKC1.1) was co-transformed with 1) a construct (pCL-SE-0274) for expression of HMGR and GPS1.1 and 2) a construct (pCL-SE-0406) for expression of a fusion protein that contains, from N- to C-terminus, GPS1.1 and MPT4 linked using the F11 linker sequence or a construct (pCL-SE-0474) for expression of a fusion protein that contains, from N- to C-terminus, GPS1.1, PKC1.1 and MPT4, each linked using the F11 linker sequence.
Transformants were assessed for CBGA production from hexanoic acid. Assay cultures consisted of YNBD+CAA media with 2.5 mM hexanoic acid. After 24 h, an additional 5 mM hexanoic acid was added to each assay culture. Cultures were quenched after 48 h total growth.
Overnight YPD (10 g/L yeast extract, 20 g/L peptone, 2% dextrose) cultures were inoculated from glycerol stocks of the appropriate strain and grown at 30° C. with 250 rpm shaking. Once cultures had reached an OD600 of 4-6, cultures were centrifuged at 500×g for 5 min, supernatants were discarded, and cell pellets were resuspended in equal volume of water. Resuspended cells were centrifuged at 500×g for 5 min, supernatants were discarded, and cells were resuspended in a volume (75 μL×OD×Vculture) of transformation cocktail (45% PEG-400, 0.1 M LiAc, 0.1 M DTT, and 25 ug/100 μL SS Salmon Sperm DNA). For each transformation, >1 μg of plasmid DNA was added to 55 μL cells/transformation cocktail and vortexed for 2 s. Transformations were incubated at 39° C. for 1 h with 250 rpm shaking. Transformations were resuspended in 750 μL YPD with 1 M sorbitol and recovered at 30° C. overnight with 250 rpm shaking. […] Precipitates were pelleted by centrifuging at 4600×g for 10 min and then 200 μL was transferred to fresh plates, sealed, and analyzed via HPLC.
All samples were quenched with equal volume of EtOH containing 0.2 mg/mL internal standard (3,5-Diisopropyl-2-hydroxybenzoic acid CAS #2215-21-6) centrifuged, and clarified solutions were analyzed by HPLC-MS […]

The test system of assay [1] is divarinic acid. In words: MPT fusions with GPS1.1 vs unfused MPTs, DVA feed (Example 9, Table 11). As to conditions: 2 mM divarinic acid. On the procedure: As described below, plasmids pCL-SE-0406, pCL-SE-0664, pCL-SE-0663, pCL-SE-0662, pCL-SE-0380 (MPT4), pCL-SE-0337.MPT21, were transformed into strain sCL-SE-0128. Multiple colonies per transformation were precultured for 48 h in YNB containing glucose (2%), casamino acids (0.5%), and MES (100 mM pH 6.5). Pre-culture was used to inoculate assay medium comprised of YNB containing glucose (2%), casamino acids (0.5%), MES (100 mM pH 6.5), and divarinic acid (2 mM). Cultures were quenched after 48 h total growth and assayed for CBGVA and FCBGVA. Averages and standard deviations were calculated from replicates.
(§1) Overnight YPD (10 g/L yeast extract, 20 g/L peptone, 2% dextrose) cultures were inoculated from glycerol stocks of the appropriate strain and grown at 30° C. with 250 rpm shaking. Once cultures had reached an OD600 of 4-6, cultures were centrifuged at 500×g for 5 min, supernatants were discarded, and cell pellets were resuspended in equal volume of water. Resuspended cells were centrifuged at 500×g for 5 min, supernatants were discarded, and cells were resuspended in a volume (75 μL×OD×Vculture) of transformation cocktail (45% PEG-400, 0.1 M LiAc, 0.1 M DTT, and 25 ug/100 μL SS Salmon Sperm DNA). For each transformation, >1 μg of plasmid DNA was added to 55 μL cells/transformation cocktail and vortexed for 2 s. Transformations were incubated at 39° C. for 1 h with 250 rpm shaking. Transformations were resuspended in 750 μL YPD with 1 M sorbitol and recovered at 30° C. overnight with 250 rpm shaking. The next day, transformations were centrifuged at 500×g for 5 min, supernatants were discarded, and cell pellets were resuspended in 750 YPD. Resuspended transformations were plated on YPD with appropriate selection or YNBD (6.71 g/L yeast nitrogen base+nitrogen, 0.5% casamino acids, 2% dextrose) agar plates and grown at 30° C. for 2 days. Individual colonies were patched onto YPD plates with appropriate selection or YNBD plates and grown at 30° C. overnight. Patches were used to inoculate 0.5 mL YPD with appropriate selection or YNBD precultures in 96 w blocks and grown at 30° C. for 24-48 h with 1000 rpm shaking. For assays, 0.5 mL YPD with appropriate selection or YNBD cultures containing substrate were inoculated with 2 μL from precultures and grown at 30° C. for 2-4 days with 1000 rpm shaking with 2% glucose added every 24 h. Assay cultures were quenched by addition of 0.5 mL ethanol with 0.2% formic acid and 0.5 mg/mL pentyl-benzoic acid. Precipitates were pelleted by centrifuging at 4600×g for 10 min and then 200 μL was transferred to fresh plates, sealed, and analyzed via HPLC.
(§2) All samples were quenched with equal volume of EtOH containing 0.2 mg/mL internal standard (3,5-Diisopropyl-2-hydroxybenzoic acid CAS #2215-21-6) centrifuged, and clarified solutions were analyzed by HPLC-MS
(§3) • Column: 2.1×50 mm COSMOCORE PBr (Nacalai USA, Inc.) • Mobile Phase: A; 0.1% formic acid in water, B; 0.1% formic acid in acetonitrile • Flow: 0.45 mL/min • Temp: % 50 Celsius • Gradient: 20%B at 0 min, 70%B at 2.3 min, 89% B at 4.2 min, 20% B at 4.3 min, 20%B at 6 min

For assay [2], the system named is olivetolic acid. The assay is described as follows: GPS1.1 fusions of MPT21 mutants, OA feed (Example 8, Table 10). As to conditions: 3 mM olivetolic acid, 6% glucose, 48 h quench; strain sCL-SE-0128. How it is done: as §1, §2, §3
The subject of assay [3] is divarinic acid. The assay is described as follows: GPS1.1 fusions of MPT21 mutants, DVA feed (Example 9, Table 12). As to conditions: 2 mM divarinic acid, 2% glucose, quenched after 48 h; strain sCL-SE-0128. On the procedure:
as §1, §2, §3

The test system of assay [4] is olivetolic acid. In words: MPT fusions with GPS1.1 vs unfused MPTs, OA feed (Example 8, Table 9). Conditions: 2 mM olivetolic acid, 48 h quench. A digest of the protocol:
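Yeast strain sCL-SE-0128 carrying MPT or GPS1.1–MPT fusion plasmids, precultured 48 h in YNB/2% glucose/0.5% casamino acids/100 mM MES pH 6.5. Assay medium was the same plus 2 mM olivetolic acid, 30 °C. Cultures were ethanol-quenched at 48 h total growth, and CBGA and FCBGA were measured by HPLC-MS with internal standard; values are replicate means ± SD.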

The mark [5] stands for this setting: 2% glucose, quenched after 48 h, strain sCL-SE-0128.

B1: GPS1.1-F11-PKC1.1-F11-MPT4: triple fusion of GPS1.1, PKC1.1 and MPT4 via F11 linkers, SEQ ID NO: 92 (protein)
chain: MSKAKFESVFPRISEELVQLLRDEGLPQDAVQWFSDSLQYNCVGGKLNRGLSVVDTYQLLTGKKELDDEEYYRLALLGWLIELLQAFWLVSDDIMDESKTRRGQPCWYLKPKVGMIAIWDAFMLESGIYILLKKHFRQEKYYIDLVELFHDISFKTELGQLVDLLTAPEDEVDLNRFSLDKHSFIVRYKTAYYSFYLPVVLAMYVAGITNPKDLQQAMDVLIPLGEYFQVQDDYLDNFGDPEFIGKIGTDIQDNKCSWLVNKALQKATPEQRQILEDNYGVKDKSKELVIKKLYDDMKIEQDYLDYEEEVVGDIKKKIEQVDESRGFKKEVLNAFLAKIYKRQKGGAEAAAKEAAAKAGGSGGGSGGGGSGGSGGGGSGGGGSMAVKHLIVLKFKDEITEAQKEEFFKTFVNLVNIIPAMKDVYWGKDVTQKNKEEGYTHIVEVTFESVETIQDYIIHPAHVGFGDVYRSFWEKLLIFDYTPRKGGAEAAAKEAAAKAGGSGGGSGGGGSGGSGGGGSGGGGSMSDNSIATKILNFGHTCWKLQRPYVVKGMISIACGLFGRELFNNRHLFSWGLMWKAFFALVPILSFNFFAAIMNQIYDVDIDRINKPDLPLVSGEMSIETAWILSIIVALTGLIVTIKLKSAPLFVFIYIFGIFAGFAYSVPPIRWKQYPFTNFLITISSHVGLAFTSYSATTSALGLPFVWRPAFSFIIAFMTVMGMTIAFAKDISDIEGDAKYGVSTVATKLGARNMTFVVSGVLLLNYLVSISIGIIWPQVFKSNIMILSHAILAFCLIFQTRELALANYASAPSRQFFEFIWLLYYAEYFVYVFI
modifications: GPS1.1-F11-PKC1.1-F11-MPT4, geranyl diphosphate synthase, polyketide cyclase, membrane-bound prenyltransferase fusion protein
On to B1, for which the CBGA in the assay on hexanoic acid (hexanoic acid 2.5 mM plus 5 mM after 24 h, 48 h quench, strain SB-00311 + pCL-SE-0274, average of 44 or 34 transformants) was determined as 77.4 ± 32.4 µM. In addition, the “production of CBGA compared to the GPS1.1-MPT4 double fusion” value in the assay on hexanoic acid (in words, hexanoic acid feed) is “improved production of CBGA”.

B2: GPS1.1-F11-MPT21: fusion of GPS1.1 and MPT21 via F11 linker, SEQ ID NO: 25 (protein)
chain: MSKAKFESVFPRISEELVQLLRDEGLPQDAVQWFSDSLQYNCVGGKLNRGLSVVDTYQLLTGKKELDDEEYYRLALLGWLIELLQAFWLVSDDIMDESKTRRGQPCWYLKPKVGMIAIWDAFMLESGIYILLKKHFRQEKYYIDLVELFHDISFKTELGQLVDLLTAPEDEVDLNRFSLDKHSFIVRYKTAYYSFYLPVVLAMYVAGITNPKDLQQAMDVLIPLGEYFQVQDDYLDNFGDPEFIGKIGTDIQDNKCSWLVNKALQKATPEQRQILEDNYGVKDKSKELVIKKLYDDMKIEQDYLDYEEEVVGDIKKKIEQVDESRGFKKEVLNAFLAKIYKRQKGGAEAAAKEAAAKAGGSGGGSGGGGSGGSGGGGSGGGGSMSDNSIATKILNFGHTCWKLQRPYVVKGMISIACGLFGKELLHNTNLISWGLMWKAFFALVPILSFNFFAAIMNQIYDVDIDRINKPDLPLVSGEMSIETAWILSIIVALTGLIVTIKLKSAPLFVFIYIFGIFAGFAYSVPPIRWKQNPSTNFLITISSHVGLAFTSYYASRAALGLPFELRPSFTFLLAFMTVMGMTIAFAKDISDIEGDAKYGVSTVATKLGARNMTFVVSGVLLLNYVAAILAGIIWPQAFNSNVMLLSHAILAFCLIFQTRELALANYASAPSRQFFEFIWLLYYAEYFVYVFI
modifications: GPS1.1-F11-MPT21, geranyl diphosphate synthase, recombinant membrane-bound prenyltransferase fusion protein
For the molecule B2, in the assay with divarinic acid [1] (setting [5]), the CBGVA is 28 ± 2 µM and the FCBGVA is 4 ± 0 µM. Besides, the CBGVA/FCB in the assay with divarinic acid [1] (48 h, product ratio) was determined as 7.2. In the assay with olivetolic acid [2], the CBGA turned out to be 276 ± 17 µM and the FCBGA turned out to be 89 ± 4 µM. For the same molecule, in the assay with divarinic acid [3], the CBGVA was 58 ± 7 µM and the FCBGVA amounted to 6 ± 1 µM. In addition, in the assay on olivetolic acid [4] (2% glucose, strain sCL-SE-0128), the CBGA was 156 ± 13 µM and the FCBGA was 52 ± 5 µM. The CBGA/FCBGA in the assay on olivetolic acid [4] (product ratio) was 3.0.

Values taken from patent publication US20240228986A1, “ENGINEERED CELLS, ENZYMES, AND METHODS FOR PRODUCING CANNABINOIDS” (priority 2021, published 2024).
